Measurements as given in US20250051428A1 (UNIVERSITY OF BRITISH COLUMBIA, published 2025).

T1: cyclo(CGHHQKG) conjugated to BSA (also: conjugated to BSA, site not given here)
T1 construct: also called Cyclic Peptide; cyclopeptide
T1 peptide: cyclo(CGHHQKG)


Assays:
[1] = target: T2, commercially-prepared stable A-beta42 Oligomers (SynAging SAS) (human); test: ProteOn biosensor, antibody captured with anti-mouse IgG or amine-coupled on GLM chip, AbO 12.3 nM to 1 µM; hybridoma-purified antibody
T2 construct: Bought oligomer preparation; also called AbO; SynAging AbO
T2 sequence (peptide, as listed by the source): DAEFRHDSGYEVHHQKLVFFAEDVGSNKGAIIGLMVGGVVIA
Method: (§1) AbO 3 fold-dilutions were used: 1 μM, 0.33 μM, 0.11 μM, 37 nM, 12.3 nM. Assay buffer was PBS-E+Tween 20+2 mg/ml BSA.

[2] = target: T1, cyclo(CGHHQKG) conjugated to BSA; test: ProteOn biosensor, antibody amine-coupled to GLH chip, cyclo-BSA 111 pM to 9 nM
Method: Cyclo-BSA 3-fold dilutions were used from 9 nM to 111 pM. Assay buffer was PBS-E+0.05% Tween+10 mg/ml BSA.

[3] = target: T2, commercially-prepared stable A-beta42 …; test: ProteOn biosensor, antibody captured with anti-mouse IgG or amine-coupled on GLM chip, AbO 12.3 nM to 1 µM; lower end of the printed range 16.2-19.5 nM; test or coupling not stated
Method: as §1

[4] = target: T2, commercially-prepared stable A-beta42 …; test: ProteOn biosensor, antibody captured with anti-mouse IgG or amine-coupled on GLM chip, AbO 12.3 nM to 1 µM; upper end of the printed range 16.2-19.5 nM; test or coupling not stated
Method: as §1

Row | Kd [1] | Kd [2] | Kd [3] | Kd [4] | Binder
1 | ~26.9 nM |  |  |  | 301-17 (hybridoma-purified IgG3) (antibody, V domains shown, Mouse hybridoma monoclonal, IgG3) VH: QVQLQQPGAELVKPGASVKMSCKASGYSFTSYWINWVKQRPGQGLEWIGDVHPGRGVSTYNAKFKSKATLTLDTSSSTAYMQLSSLTSEDSAVYYCSRSHGNTYWFFDVWGAGTTVTVSS VL: DVLMTQTPLSLPVSLGDQASISCRSSQSIVHSNGNTYLEWYLQKPGQSPKLLIYKVSNRFSGVPDRFSGSGSGTDFTLKISRVEAEDLGVYYCFQGSHVPFTFGSGTKLEIK
2 |  | ~0.017 nM | 16.2 to 19.5 nM | 16.2 to 19.5 nM | Recombinant 301-17 IgG2a (antibody) heavy: QVQLQQPGAELVKPGASVKMSCKASGYSFTSYWINWVKQRPGQGLEWIGDVHPGRGVSTYNAKFKSKATLTLDTSSSTAYMQLSSLTSEDSAVYYCSRSHGNTYWFFDVWGAGTTVTVSSAKTTAPSVYPLAPVCGDTTGSSVTLGCLVKGYFPEPVTLTWNSGSLSSGVHTFPAVLQSDLYTLSSSVTVTSSTWPSQSITCNVAHPASSTKVDKKIEPRGPTIKPCPPCKCPAPNLLGGPSVFIFPPKIKDVLMISLSPIVTCVVVDVSEDDPDVQISWFVNNVEVHTAQTQTHREDYNSTLRVVSALPIQHQDWMSGKEFKCKVNNKDLPAPIERTISKPKGSVRAPQVYVLPPPEEEMTKKQVTLTCMVTDFMPEDIYVEWTNNGKTELNYKNTEPVLDSDGSYFMYSKLRVEKKNWVERNSYSCSVVHEGLHNHHTTKSFSRTPGK light: DVLMTQTPLSLPVSLGDQASISCRSSQSIVHSNGNTYLEWYLQKPGQSPKLLIYKVSNRFSGVPDRFSGSGSGTDFTLKISRVEAEDLGVYYCFQGSHVPFTFGSGTKLEIKRADAAPTVSIFPPSSEQLTSGGASVVCFLNNFYPKDINVKWKIDGSERQNGVLNSWTDQDSKDSTYSMSSTLTLTKDEYERHNSYTCEATHKTSTSPIVKSFNRNEC
